# In patent US20120178908A1 (Novo Nordisk, published 2012):
# T1: hTLT-1.126-162 (TLT-1 stalk peptide) (human)
# T1 construct: Made by solid phase peptide synthesis; not glycosylated; also called chain P of the crystal structure
# T1 peptide: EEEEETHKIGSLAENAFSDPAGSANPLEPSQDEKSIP
# Molecular target: T1, hTLT-1.126-162 (TLT-1 stalk peptide)
# Assay: crystal structure of the Fab0100:hTLT-1.126-162 complex
# Source text: Crystallogr. 40, 658-674) of the CCP4 suite (Bailey,S. (1994) Acta Crystallogr. Sect. D-Biol. Crystallogr. 50, 760-763). […] Additional crystallographic refinements, using the REFMAC5 software program (Murshudov, G. N. et al. Acta Crystallogr. Sect. D-Biol. Crystallogr. 53, 240-255), followed by computer graphics inspection of the electron density maps, model corrections and building, using the COOT software program (Emsley, P. et al. Acta Crystallogr. Sect. D-Biol. Crystallogr. 60, 2126-2132), were applied. The procedure was cycled until no further significant improvements could be made to the model.
# The crystal was allowed to soak for about 15 seconds, then flash frozen in liquid N₂ and during data collection kept at 100 K by a cryogenic N₂ gas stream. Crystallographic data were subsequently collected to 1.85 Å resolution at beam-line BL911-3 (Ursby, T. et al. (2004) AIP Conference Proceedings 705, 1241-1246) at MAX-lab, Lund, Sweden. Space group determination, integration and scaling of the data were made in the XDS software package. Cell parameters for the synchrotron data were determined to be 82.54, 65.32, 108.05 Å, 90°, 95.15° and 90°, for a, b, c, α, β and γ, respectively, and space group was determined to be C2. Rsym for intensities of the data set was calculated to be 6.7%. […]
binder,measurement,value
"Fab0100 (anti-TLT-1 Fab) (Fab, V domains shown, also called Fab 0061 (Fab 0012-LC.C36A; VH.T60N-CH1)) VH: EVKLLESGGGLVQPGGSLKLSCAASGFDFSRYWMTWVRQAPGKGLEWIGEINPDSSTINYNPSLKDKFIISRDNAKNTLYLQMSEVRSEDTALYYCASGVFTSWGQGTLVTVSA VL: DVVMTQTPLSLPVSLGDQASISCRSSQSLVHRNGNTYFHWALQKPGQSPKLLIYKVSNRFSGVPDRFSGSGSGTDFTLKISRVEAEDLGVYFCSQSTHVPYTFGGGTKLEIKR",binding result,binds
